The text below walks through data of paper PMC3075490.

This series addresses T1, [4Fe-4S]-NsrR-His6 (anaerobically purified) (Bacillus subtilis (JH642 background), UniProt O07573 1-146).
T1 sequence: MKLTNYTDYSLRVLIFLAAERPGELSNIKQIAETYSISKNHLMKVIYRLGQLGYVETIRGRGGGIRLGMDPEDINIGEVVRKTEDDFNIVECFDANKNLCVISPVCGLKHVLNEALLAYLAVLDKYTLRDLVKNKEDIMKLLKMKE
Put plainly: EMSA. A general note: Mobility shift assays separate free from complexed probe on a gel.

In the case of GCATAACATGTATCTTAAATATTCCTTTCG (ssDNA) [nasD coding strand 30-mer oMN09-489], the binding result is recorded as “no binding”.
